Assay results as given in the supplement of paper PMC12042874.
± gives the uncertainty stated by the source.

Assay: amyloid nucleation score (Sup35N fusion, yeast selection) (log enrichment); library NNK1; higher = more nucleation; inactive = no reads after selection
In short: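 Libraries of peptides of 20 random codons fused to Sup35N were expressed in psi-negative yeast and induced 24 hours with 100 μM copper sulfate. Selection was 7 days at 30°C on medium lacking adenine and uracil, and plasmid inserts were Illumina-sequenced before and after selection. Nucleation score is the DiMSum log enrichment of output over input reads, centred on the mode score of non-aggregating sequences, and sequences with under 100 input reads were left out.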

Row | Substance | amyloid nucleation score
1 | LGWDDVVY | 0.314 ± 0.85
2 | LHHRSLFDCESNTAGSPRFV | -0.279 ± 0.47
3 | LHIVMLVLMASMEQTVTS | -1.11 ± 2.4
4 | LHLERALLTNRLFRS | 0.077 ± 0.49
5 | LHVRVCMYADMLSFYGSFAY | 2.68 ± 0.085
6 | LICQLGEPQFNKFHWICSLD | -0.39 ± 1.7
7 | LIDRHSFVRGRIRVSSVVVC | inactive
8 | LIFLLSQSIVVMQWSGRKKQ | inactive
9 | LIFMMDEVMYNGVSCFVRRE | 0.136 ± 0.69
10 | LIGRRGLHYLF | -0.186 ± 1.9
11 | LIIVRSMSNDGSIVGSQAWP | 8.152 ± 0.073
12 | LIKYFNINYNGCSAVPWGSP | 5.981 ± 0.056
13 | LILFWF | -0.5 ± 1.4
14 | LILSSCHERGSGGVFWTDHV | 0.924 ± 0.64
15 | LINFLLVTVCTSWIGISLCV | 0.358 ± 0.39
16 | LINHIS | 0.444 ± 0.9
17 | LISACDRSPSVIPI | 0.252 ± 0.37
18 | LISPVQSNTSAMVCELSDPY | 0.56 ± 0.76
19 | LITLAFVVSCVSYSRGSKRW | 1.31 ± 0.23
20 | LITLREVTYIFNWTFLNYLR | -0.305 ± 0.43
21 | LIVNRSKFLT | 0.625 ± 0.36
22 | LIVVSLGKMKLGYYFKFNVL | 0.286 ± 0.22
23 | LIWSMEALYFMDLLGG | inactive
24 | LKASWRAGRATVREKGCKLA | 0.505 ± 0.38
25 | LKMEYHVGRNWSLGKSRAPE | 0.335 ± 0.92

Row | Substance | amyloid nucleation score
26 | LKYANLSMRYPWVKKYCKEN | -0.301 ± 0.51
27 | LKYFYR | 0.44 ± 0.34
28 | LLCYMRGYPSCL | 0.512 ± 0.36
29 | LLDSNHSVLYFIFGLVT | 1.27 ± 0.42
30 | LLDWGFPG | -1.22 ± 1.6
31 | LLFRNYHMGDLEHLFIFYWY | 0.475 ± 0.56
32 | LLGAR | 0.272 ± 0.79
33 | LLHGGY | -1.86 ± 2.4
34 | LLLLHLWLALRGLSDCSSHV | 0.626 ± 0.87
35 | LLLRSAAESRVSLDEEARGT | 0.191 ± 0.64
36 | LLMEFI | 1.46 ± 0.84
37 | LLMNQV | 0.715 ± 0.5
38 | LLQMWMEWRVFYYHLFVSAS | 0.085 ± 0.55
39 | LLQSGGLVIRVHCSMFTVGA | -0.889 ± 0.78
40 | LLRFTCSILLRA | 0.437 ± 0.79
41 | LLSFAITCDSPVSRSVLFIR | -0.53 ± 0.58
42 | LLSTHVMQVLPMNQAKNILK | -0.935 ± 0.29
43 | LLSVF | 0.484 ± 0.74
44 | LLVCSKRSGLVSLLLVIYAF | -0.522 ± 1.4
45 | LLVESKAYGWHVMRGQTWTR | -0.045 ± 0.42
46 | LLVVIQICLM | 2.9 ± 0.14
47 | LLWTSNIIYMSFAVRNKSVR | 0.59 ± 0.32
48 | LLYFRVRSMFKGLRNETYMA | 0.411 ± 0.27
49 | LMFGRKCMLSLFPVRFHRCH | 0.378 ± 0.9
50 | LMFSIFTYNFGKNWSSKSLG | 0.303 ± 0.52

Row | Substance | amyloid nucleation score
51 | LMSTVIVESVVIWGMAARVQ | 2.62 ± 0.11
52 | LMVGVSRGSGWRCGPLGEGA | 0.035 ± 0.37
53 | LMVISYRCDATGRRRVSLD | 0.867 ± 0.25
54 | LMWNLTLS | 0.949 ± 0.97
55 | LMWVSRR | 0.13 ± 0.38
56 | LMYPSGQSKRWIYRLYMGYR | inactive
57 | LNCWLNRSVYVRLNRQDGKT | 2.5 ± 0.31
58 | LNHRGGLVDGFMAAGPRKFR | -0.793 ± 1
59 | LNHSAIRHTVSGLNPWSWAG | -0.288 ± 1.5
60 | LNRSGIISITIMTWSFGNAQ | 2.75 ± 0.13
61 | LNSKILGKSRTCDENSWPFV | -0.27 ± 0.51
62 | LNSLNVGLVEDKQYILYER | 1.68 ± 0.39
63 | LNSNPDCKTLFIHAWW | 0.282 ± 1.2
64 | LNTFWKIRTNMSMGTWS | 0.79 ± 0.65
65 | LNVCSRTPWYKSQSFVDRCV | -1.69 ± 2.4
66 | LNVIVKDRGPCKSSSEIAVD | -1.35 ± 1.3
67 | LNVTQYVKGSEWKWGSTTSP | 0.176 ± 0.52
68 | LPCHWVHVQGHHWLRLDVMC | 0.2 ± 0.64
69 | LPFMHYYHSGY | -0.814 ± 1.4
70 | LPGMVSL | 0.33 ± 0.42
71 | LPLICRSSGLLV | -0.405 ± 1.6
72 | LPYNHTQTVMDFIYFVFWLL | 0.698 ± 0.24
73 | LQNSDVFHADLQIISPTFCP | -0.826 ± 1.8
74 | LQYSKGYDRVRDPILHTVN | 0.389 ± 0.37
75 | LQYWEVYSSCRMRVGYYSAD | 1.67 ± 0.13

Row | Substance | amyloid nucleation score
76 | LRCLANVDSIICNSV | -0.071 ± 0.9
77 | LRDRCTFG | -0.755 ± 0.5
78 | LREGTFRLRQVTTFRGYRPW | 0.101 ± 0.37
79 | LREVGQNLVGMSV | inactive
80 | LRHFCGTFAAVTRKRVYPLS | -0.95 ± 2.7
81 | LRIARVYVYKIRAWSVVSGK | -1.35 ± 0.63
82 | LRIERMWVWVSA | 0.556 ± 0.65
83 | LRIHGSTLRISLW | 1.64 ± 0.28
84 | LRILVITYILCT | -0.331 ± 0.42
85 | LRIVS | -0.11 ± 0.4
86 | LRNAMVMSLYN | -0.423 ± 0.72
87 | LRNAVFVDPSCNYYVFILRL | 3.72 ± 0.15
88 | LRNIGCKY | 1.01 ± 0.64
89 | LRRLSIANLFIFAFSWRFYW | 1.03 ± 0.52
90 | LRRLTTVAGIVIAVTSEDDT | 0.595 ± 0.73
91 | LRSFIGRRS | 0.272 ± 0.32
92 | LRSIRVPP | -0.005 ± 0.32
93 | LRSSVSFGQLSRNPHAGSSH | -1.4 ± 1.4
94 | LRSTLPADRRGLICFSHI | 0.528 ± 1
95 | LRSVPRSRSF | 0.783 ± 0.41
96 | LRVKIHTIVIQWIANNGARL | 0.39 ± 0.74
97 | LRVYGGFLSMSCMRQRDGTV | 0.151 ± 0.39
98 | LRWFPEAFNGAERESLASNL | -0.102 ± 0.52
99 | LRYASEGSKFFVWNLTYLNR | -0.147 ± 1.2
100 | LSCLYDDCC | 1.05 ± 0.61

Row | Substance | amyloid nucleation score
101 | LSDFLRPLVLVFLSTLEVAM | 0.138 ± 0.35
102 | LSFWLCSWSMWCKSQLGNDR | 2.13 ± 0.13
103 | LSGPLNGEDFHRIFQVDFRW | 0.244 ± 0.79
104 | LSHLRSLYKGCSYRMHSWMY | 1.04 ± 0.58
105 | LSHWMPVN | -0.527 ± 0.34
106 | LSIIVHNCGVLVVSMTLTVI | -0.172 ± 1.6
107 | LSLFCVLMY | 2.1 ± 0.27
108 | LSMRWYTSPFAFGIS | -0.114 ± 0.88
109 | LSPGRYFDSPL | 0.589 ± 0.77
110 | LSQMSRCNPACAVVPASEMA | 0.376 ± 1.1
111 | LSQNLAPGIVFFAV | -1.02 ± 1.7
112 | LSQTKSL | -0.012 ± 0.77
113 | LSSAGYQFMFLSSFLGWEVN | -0.492 ± 0.44
114 | LSSRFAWCIWGET | 0.956 ± 0.73
115 | LSSYGYHMRVDHVTNANPSR | 0.159 ± 0.43
116 | LSTDQLVSSLKCR | 0.404 ± 0.41
117 | LSYDEYPGMNASAAIQGLVV | -0.556 ± 1.4
118 | LSYRCVVYSVMIWSDIRALV | 0.655 ± 0.3
119 | LTARSFKCF | inactive
120 | LTCFVISVGTSSLIIDFWI | -0.647 ± 0.39
121 | LTFMFTTRIA | -0.912 ± 1.1
122 | LTFNAMMMMIMLIMSAYIVS | 1.89 ± 0.46
123 | LTGFCHFYGSIFTSYMKSL | inactive
124 | LTGSRIMCFSMWR | -1.02 ± 0.43
125 | LTGYTAS | 0.295 ± 0.37

Row | Substance | amyloid nucleation score
126 | LTIRQWRFITAVGDLFLWMR | 0.331 ± 0.58
127 | LTLICSSGEC | 2.14 ± 0.17
128 | LTLLA | -0.096 ± 1.7
129 | LTLMGRSMNKYVAGSTTRAL | -0.371 ± 0.29
130 | LTVLACPRYSS | 0.525 ± 0.87
131 | LTWHRLSISHTVAYLSTDSI | inactive
132 | LTYCDIVLSMMSLDEKSDYD | inactive
133 | LTYSPWGCWIYMCYGERFWR | 7.883 ± 0.062
134 | LVCSGKWFVKSARLQ | 0.962 ± 0.14
135 | LVFTNTLSTIFNNLHCYMWE | 4.49 ± 0.12
136 | LVFWRLCERHRWLRGFESA | -1.06 ± 1.5
137 | LVGGCPLTRGRGYGRPRNGG | -1.9 ± 2.7
138 | LVIHCDQTHIKVQRDVPRRW | 2.98 ± 0.15
139 | LVILRGLGPDSCYYC | -0.248 ± 0.86
140 | LVIYVVSDDSVGLTNWRIVA | 3.76 ± 0.065
141 | LVLAENCR | -0.672 ± 0.68
142 | LVLGAVV | -0.104 ± 0.87
143 | LVLIRKLVWGSGSDTLWVRR | inactive
144 | LVMCFVMGMLNLDAGLIMRM | 0.425 ± 0.37
145 | LVMGMHYSLVV | 0.125 ± 0.46
146 | LVMLRCAMTLCSIMLNYTPR | 0.89 ± 0.39
147 | LVNIHVIQKAFVGTVASSKV | 5.07 ± 0.067
148 | LVNNSSCYHCQRLGQLEVNK | 0.215 ± 0.33
149 | LVRAIIANCAYFCQFRFSLG | 0.944 ± 0.69
150 | LVSQVFNVQRYGGRTVPQSF | 0.364 ± 1.2

Row | Substance | amyloid nucleation score
151 | LVVLLIRTNCVKRKEFGERA | -2.04 ± 2.4
152 | LVYILMLYWVYGQIGNFSLV | -0.955 ± 0.9
153 | LWAFIIGIVSTTLLGYKPFH | -0.344 ± 1.1
154 | LWFNSDLIE | -0.369 ± 0.35
155 | LWGDYPFRDVPRTMVDQRRN | 0.079 ± 0.98
156 | LWKGATRCHKVLRMLENDND | -0.606 ± 0.9
157 | LWKNVVWTTGPIIASWVSDL | 2.04 ± 0.11
158 | LWLRCLSIAAGIHQ | 2.31 ± 0.12
159 | LWMYYESFF | 0.843 ± 0.6
160 | LWVRSKFRSC | -0.08 ± 1.1
161 | LWVSNSSIRLDRNINQTLAT | 0.019 ± 1.4
162 | LWYCYYSVVFILSGALSHCV | -0.252 ± 1.4
163 | LYCSNLILVWLFCRSDISVR | 5.17 ± 0.056
164 | LYESELLNNHQETSPQSSEG | -0.349 ± 0.56
165 | LYGFANYFRFMRYWTRNVVP | 0.124 ± 1.2
166 | LYIFGAY | -1.26 ± 0.53
167 | LYIFLNEDDRFSMKQGVKGG | 0.546 ± 0.83
168 | LYIMGRLDFIFRWVTGGFDT | -0.838 ± 0.77
169 | LYIMLLLLLLTSQYT | -0.347 ± 0.63
170 | LYLLSDNFR | 1.68 ± 0.72
171 | LYNLGHDSVGDLSFFCLRGW | -0.427 ± 0.36
172 | LYNSRTWMIGIGSPAQIV | -0.731 ± 0.61
173 | LYSGFNRSKRSAVNSICAH | 0.368 ± 0.18
